Data set [1] has as its target BDCA-2 Ser49Cys variant extracellular domain fused to an N-terminal 3-heptad coiled-coil dimerization domain (human) (UniProt Q8WTT0). Nature of the data set: SEC; 1 x 30 cm Superdex S75, 10 mM Tris-Cl pH 7.8, 100 mM NaCl, 2.5 mM EDTA, 0.5 mL/min, room temperature; some fragments analysed at serial dilutions.
Data set [2] shares this target. Briefly: non-reducing versus reducing SDS-PAGE (disulfide-linked dimer); bacterially expressed extracellular domain fusions eluted from a 5-mL desialylated egg glycopeptide column with EDTA, gels with or without 2-mercaptoethanol, Coomassie blue.
For data set [3], the target named is wild type BDCA-2 extracellular domain (from His44) fused to an N-terminal 3-heptad coiled-coil dimerization domain (human) (UniProt Q8WTT0). Nature of the data set: SEC; 1 x 30 cm Superdex S75, 10 mM Tris-Cl pH 7.8, 100 mM NaCl, 2.5 mM EDTA, 0.5 mL/min, room temperature; some fragments analysed at serial dilutions.
Data set [4] deals with dectin-2 extracellular fragment beginning with His44 fused to an N-terminal 3-heptad coiled-coil dimerization domain (human) (UniProt Q6EIG7). Described as above.
Data set [5] has the same target. Nature of the data set: cross-linking; dectin-2 extracellular domain with dimerization domain in HEPES pH 7.8 buffers, bis(sulfosuccinimidyl) suberate or disuccinimidyl tartrate, serial dilutions, room temperature 30 min, reducing 17.5% SDS-PAGE, Coomassie blue.
Data set [6] deals with the molecule itself. Nature of the data set: SEC; 1 x 30 cm Superdex S75, 10 mM Tris-Cl pH 7.8, 100 mM NaCl, 2.5 mM EDTA, 0.5 mL/min, room temperature; some fragments analysed at serial dilutions.
Data set [7] deals with the molecule itself. Nature of the data set: cross-linking; BDCA-2 purified from HEK cells in HEPES pH 7.8 buffers, pooled fractions reacted with various concentrations of bifunctional reagent for 30 min, reducing SDS-PAGE, western blot. (In general: In western blotting, separated proteins are transferred to a membrane and probed.)
Data set [8] deals with the molecule itself. Nature of the data set: non-reducing versus reducing SDS-PAGE (disulfide-linked dimer); BDCA-2 purified from HEK cells by affinity chromatography (lysis with N-ethylmaleimide), gels with or without 2-mercaptoethanol, western blot with anti-BDCA-2 antiserum.

A word on the stoichiometry N: it is the number of molecules, sites or subunits per partner or assembly.

Numbering of substitutions follows the chain as printed.

As to “BDCA-2 Ser49Cys variant extracellular domain fused to an N-terminal 3-heptad coiled-coil dimerization domain (from UniProt Q8WTT0 44-213)”, the stoichiometry N in data set [1] and in data set [2] was 2 in each case.
As to “wild type BDCA-2 extracellular domain (from His44) fused to an N-terminal 3-heptad coiled-coil dimerization domain (from UniProt Q8WTT0 44-213)”, the stoichiometry N in data set [3] worked out at 2.
Take “dectin-2 extracellular fragment beginning with His44 fused to an N-terminal 3-heptad coiled-coil dimerization domain (from UniProt Q6EIG7 44-209)”: the stoichiometry N in data set [4] and in data set [5] was 2 in each case.

B1: dectin-2 extracellular domain starting at Val40 (CRD plus full neck) (domain or fragment, human, UniProt Q6EIG7 40-209, looked up)
chain: VVTYHFTYGETGKRLSELHSYHSSLTCFSEGTKVPAWGCCPASWKSFGSSCYFISSEEKVWSKSEQNCVEMGAHLVVFNTEAEQNFIVQQLNESFSYFLGLSDPQGNNNWQWIDKTPYEKNVRFWHLGEPNHSAEQCASIVFWKPTGWGWNDVICETRRNSICEMNKIYL
notes: human dectin-2 (CLEC-6A) extracellular region starting at Val40; also called full extracellular domain of dectin-2; CRD plus neck fragment starting at residue Val40; source: E. coli BL21(DE3), inclusion bodies, renatured, purified on mannose-Sepharose
For B1, the “stoichiometry N” value in data set [6] was determined as 2.

B2: blood dendritic cell antigen 2 (BDCA-2), full-length, wild type (receptor, human, UniProt Q8WTT0 1-213, looked up)
chain: MVPEEEPQDREKGLWWFQLKVWSMAVVSILLLSVCFTVSSVVPHNFMYSKTVKRLSKLREYQQYHPSLTCVMEGKDIEDWSCCPTPWTSFQSSCYFISTGMQSWTKSQKNCSVMGADLVVINTREEQDFIIQNLKRNSSYFLGLSDPGGRRHWQWVDQTPYNENVTFWHSGEPNNLDERCAIINFRSSEEWGWNDIHCHVPQKSICKMKKIYI
modifications: N-linked glycans (high mannose and complex)
notes: human BDCA-2, full-length protein expressed in HEK cells; Co-expressed with human FcRγ; no tag is mentioned; also called wild-type BDCA-2; source: HEK 293 cells, stably co-transfected with FcRγ; in lysate and purified from lysate on a desialylated egg-glycopeptide column
Regarding B2, the “stoichiometry N” value in data set [7] was found to be 2.

B3: BDCA-2 Ser49Cys variant, full-length (receptor, human, UniProt Q8WTT0 1-213, looked up)
chain: B2 chain with S49C
modifications: interchain disulfide bond at Cys49; N-linked glycans (high mannose and complex)
notes: human BDCA-2, full-length construct with the naturally occurring change Ser49Cys (SNP found in a single individual); Co-expressed with human FcRγ; also called Ser49Cys form of BDCA-2; source: HEK 293 cells, stably co-transfected with FcRγ; in lysate and purified from lysate on a desialylated egg-glycopeptide column
On to B3, for which the “stoichiometry N” value in data set [8] came to 2.
